Laboratory results published in paper PMC11199599, “SNM1A is crucial for efficient repair of complex DNA breaks in human cells” (Nature Communications, 2024).

Experiments:
Human PCNA = biological target: T1, Human PCNA (human, UniProt P12004 1-261); experiment: pull-down; GST-SNM1A peptides held on glutathione-agarose beads, washed with PBS with 250 mM to 1 M salt; 150 ng purified PCNA or PCNA^ub added, tumbled at 4 °C for 1 h, washed as before; immunoblot for PCNA, PCNA^ub, GST; conditions: both partners purified
T1 construct: PCNA (proliferating cell nuclear antigen), human; also called native PCNA; purified PCNA; source: E. coli BL21, purified (IMAC, gel filtration on Superdex 200)

[1] = biological target: T2, Lysine 164 monoubiquitinated human PCNA (PCNA^ub) (human | , UniProt P12004 1-261; P0CG48 1-76, monoubiquitinated at lysine 164 | C-terminus joined to lysine 164 of PCNA); experiment: as above; conditions: both partners purified
T2 construct: PCNA (proliferating cell nuclear antigen), human, carrying one ubiquitin on lysine 164; ubiquitin, conjugated in vitro to lysine 164 of PCNA; also called ubiquitinated PCNA; lysine-164 monoubiquitinated PCNA

T1 sequence (P12004 whole entry): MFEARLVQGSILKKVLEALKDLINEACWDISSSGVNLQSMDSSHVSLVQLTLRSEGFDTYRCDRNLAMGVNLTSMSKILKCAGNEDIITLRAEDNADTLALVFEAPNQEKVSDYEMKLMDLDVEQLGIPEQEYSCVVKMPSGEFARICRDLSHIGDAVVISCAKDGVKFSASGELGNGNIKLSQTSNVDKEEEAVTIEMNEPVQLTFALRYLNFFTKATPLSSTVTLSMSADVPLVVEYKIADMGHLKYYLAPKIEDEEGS

B1: GST-tagged SNM1A PIP box peptide (GST-PIP) (domain or fragment, human)
chain: ARHPSTKVMKQMDIGVYFGLPPKRKEEKLL
notes: SNM1A (DCLRE1A), human, stretch spanning the PIP box; numbering as for NP_001258745.1; Cloned into pET-41b (MfeI/SalI); also called wildtype PIP box peptide; not shown: GST, N-terminal, kept
binding result (Human PCNA): binds
binding result [1]: binds

B2: GST-tagged SNM1A peptide spanning the PBZ and UBZ motifs (GST-PBZ-UBZ) (domain or fragment, human)
chain: RPVYDGYCPNCQMPFSSLIGQTPRWHVFECLDSPPRSETECPDGLLCTSTIPFHYKRYTHFLLAQSRAG
notes: SNM1A (DCLRE1A), human, stretch spanning the UBZ and PBZ motifs; numbering as for NP_001258745.1; Cloned into pET-41b; also called UBZ/PBZ peptide; PBZ-plus-UBZ; not shown: GST, N-terminal, kept
binding result [1]: binds
